According to patent US5972698:
Read-outs that look alike come from different tables or passages of the source. One block for each substance: values may come before it.

Experiments:
[1] = target: human tryptase (purified from human lung tissue) (human) (UniProt Q15661); experiment: enzyme inhibition, steady state velocities on Tos-Gly-Pro-Arg-pNA, tight binding fit; Ki for the inhibition of two of the four subunits of the tryptase-tetramer
[2] = target: human plasma kallikrein (human) (UniProt P03952); experiment: enzyme inhibition at 0.2 µM inhibitor, Table 5
[3] = target: human cathepsin G (human) (UniProt P08311); experiment: enzyme inhibition at 0.2 µM inhibitor, Table 5
[4] = target: human neutrophil elastase (human) (UniProt P08246); experiment: enzyme inhibition at 0.2 µM inhibitor, Table 5
human urokinase (human) = human urokinase (human) (UniProt P00749); experiment: enzyme inhibition at 0.2 µM inhibitor, Table 5
human plasmin (human) [5] = target: human plasmin (human) (UniProt P00747); experiment: enzyme inhibition at 0.2 µM inhibitor, Table 5
[6] = target: porcine pancreatic elastase (porcine) (UniProt P00772); experiment: enzyme inhibition at 0.2 µM inhibitor, Table 5
human factor Xa (human) = human factor Xa (human) (UniProt P00742); experiment: enzyme inhibition at 0.2 µM inhibitor, Table 5
[7] = target: porcine pancreatic kallikrein (porcine) (UniProt P00752); experiment: enzyme inhibition at 0.2 µM inhibitor, Table 5
human thrombin (human) [8] = target: human thrombin (human) (UniProt P00734); experiment: enzyme inhibition at 0.2 µM inhibitor, Table 5
[9] = target: human tryptase (purified from human lung tissue) (human) (UniProt Q15661)
bovine trypsin (bovine) [10] = target: bovine trypsin (bovine) (UniProt P00760); experiment: enzyme inhibition, steady state velocities on Tos-Gly-Pro-Arg-pNA, tight binding fit
[11] = target: human tryptase (purified from human lung tissue) (human) (UniProt Q15661); experiment: as above
[12] = target: bovine chymotrypsin (bovine) (UniProt P00766); experiment: enzyme inhibition, steady state velocities on Suc-Val-Pro-Phe-pNA, tight binding fit
[13] = target: human cathepsin G (human) (UniProt P08311)
human plasmin (human) [14] = target: human plasmin (human) (UniProt P00747)
[15] = target: porcine pancreatic kallikrein (porcine) (UniProt P00752)
human thrombin (human) [16] = target: human thrombin (human) (UniProt P00734)
[17] = target: human tryptase (purified from human lung tissue) (human) (UniProt Q15661); remark: listed apart in the source
[18] = target: human tryptase (purified from human lung tissue) (human) (UniProt Q15661); remark: listed apart in the source
[19] = target: human tryptase (purified from human lung tissue) (human) (UniProt Q15661); remark: listed apart in the source
bovine trypsin (bovine) [20] = target: bovine trypsin (bovine) (UniProt P00760)
Target sequence in this assay (P00760 24-246): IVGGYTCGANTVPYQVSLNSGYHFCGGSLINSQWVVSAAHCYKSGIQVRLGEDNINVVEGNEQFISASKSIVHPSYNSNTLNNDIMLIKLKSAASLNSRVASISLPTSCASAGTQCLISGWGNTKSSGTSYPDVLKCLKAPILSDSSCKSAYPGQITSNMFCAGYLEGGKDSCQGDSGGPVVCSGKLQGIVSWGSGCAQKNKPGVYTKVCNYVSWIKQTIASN

[21] = target: human tryptase (purified from human lung tissue) (human) (UniProt Q15661); experiment: enzyme inhibition, tos-Gly-Pro-Arg-pNa as substrate

Chain of recombinant leech-derived tryptase inhibitor form C, secreted by Saccharomyces cerevisiae (strain S-78 with pRM 9.1.4) (chain): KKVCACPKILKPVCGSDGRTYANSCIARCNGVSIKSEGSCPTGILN

- Ki [1]: 1.4 nM
- Ki relative to the complex with tryptase (times higher) [2]: > 200 times
- Ki relative to the complex with tryptase (times higher) [3]: > 200 times
- Ki relative to the complex with tryptase (times higher) [4]: > 200 times
- Ki relative to the complex with tryptase (times higher) (human urokinase (human)): > 200 times
- Ki relative to the complex with tryptase (times higher) (human plasmin (human) [5]): > 200 times
- Ki relative to the complex with tryptase (times higher) [6]: > 200 times
- Ki relative to the complex with tryptase (times higher) (human factor Xa (human)): > 200 times
- Ki relative to the complex with tryptase (times higher) [7]: > 200 times
- Ki relative to the complex with tryptase (times higher) (human thrombin (human) [8]): > 200 times
- tryptase-induced breakdown of vasoactive intestinal peptide (VIP), reversed phase HPLC [9]: 66%
- Ki (bovine trypsin (bovine) [10]): 0.9 nM
- Ki [nM], first of the two columns so headed (bovine trypsin (bovine) [10]): 4.7 nM
- Ki [nM], first of the two columns so headed [11]: 1.8 nM
- Ki [12]: 20 nM
- Ki [nM], first of the two columns so headed [12]: 137 nM
- amidolytic activity of cathepsin G on Suc-Val-Pro-Phe-pNA, inhibitor at 0.2 µM [13]: 11%
- amidolytic activity of plasmin on Tos-Gly-Pro-Lys-pNA, inhibitor at 0.2 µM (human plasmin (human) [14]): 30%
- amidolytic activity of tissue kallikrein on D-Val-Leu-Arg-pNA, inhibitor at 0.2 µM [15]: 14%
- amidolytic activity of thrombin on Tos-Gly-Pro-Arg-pNA, inhibitor at 0.2 µM (human thrombin (human) [16]): 12%
- amidolytic activity of tryptase on tos-Gly-Pro-Arg-pNa [17]: 50%
- tryptase-induced growth of HaCaT keratinocytes (3H-thymidine incorporation) [18]: 99%
Substance: leech-derived tryptase inhibitor (isolated from extract of the medical leech Hirudo medicinalis)

- amidolytic activity of tryptase on tos-Gly-Pro-Arg-pNa [19]: 50%
- trypsin inhibition assay (residual trypsin activity on Tos-Gly-Pro-Arg-p-NA) (bovine trypsin (bovine) [20]): 60%
- Ki [21]: 1.9 nM
Substance: recombinant leech-derived tryptase inhibitor form C, secreted by Saccharomyces cerevisiae (strain S-78 with pRM 9.1.4)
